Assay results reported in US12331106B2, “Anti-angiopoietin-2 antibodies that induce Tie2 activation” (Institute for Basic Science, priority 2018, dated 2025).

Tests used:
[1] = system: Tie2 receptor clustering / FOXO1 translocation in HUVECs; assay: Tie2 clustering and FOXO1 translocation in HUVECs (immunofluorescence); format: cell-based, human
Method: Tie2 clustering at cell-cell junction area and FOXO1 translocation from nucleus to cytosol by anti-Ang2 antibodies were examined in HUVECs by immunofluorescence. Specifically, HUVECs were seeded on 8 well slide chamber (Lab-Tek™ II) and maintained in EGM-2 medium for 2-3 days. At 100% confluence, the cells were serum starved with EBM-2 medium for 4 hrs and then treated with 1 μg/ml anti-Ang2 antibodies together with 1 μg/ml of hAng2 for 30 min. Thereafter, the cells were fixed with 4% formaldehyde in PBS at room temperature (RT) for 10 min, permeabilized with 0.1% TRITON™ X-100 (non-ionic polyoxyethylene surfactant) in PBS, blocked with 1% BSA in PBS at RT for 60 min, and incubated with primary antibodies at RT for 1 hr. The primary antibodies for hTie2, FOXO1, and Human Fc were used. The cells were then incubated with secondary antibodies (Invitrogen) in the dark at RT for 1 hr and mounted with VECTASHIELD® mounting medium with DAPI (Vector Labs, antifade mounting media optimized for immunofluorescence applications). Images were taken with a laser scanning confocal microscope (LSM880, Carl Zeiss).
2C8H11-induced Tie2 clustering and FOXO1 translocation was examined in a time-course study (from 10 min to 240 min). […] 6-4: Inhibition of Vascular Permeability by Humanized Anti-Ang2 Antibodies

[2] = system: HUVEC monolayer; assay: In vitro vascular permeability (leakage) assay, TNF-α induced, FITC-dextran; format: cell-based, human; details: HUVECs; pre-treatment antibody 1 μg/ml with Ang2 1 μg/ml 30 min; TNF-α 100 ng/ml 22 hr
Method: Vascular leakage assay was carried out in HUVECs using In Vitro Vascular Permeability Assay Kit (Millipore®) according to the manufacturer's instruction. HUVECs were seeded into the insert of the transwell plate and cultured for 3 days for 100% confluence. The HUVECs were pre-incubated with Ang2 (1 μg/ml), Ang2 (1 μg/ml) together with Control, 2C8H11 or 4B9H11 antibody (1 μg/ml) for 30 min, and then TNF-α (100 ng/ml) was added, and the cells were incubated at 37° C. for 22 hr. FITC-dextran was added to the upper chamber and incubated for 20 min. Passage of FITC-dextran though the HUVEC monolayer was measured by a fluorescence reader at excitation and emission wavelengths of 485 and 535 nm, respectively.

[3] = system: tumor vessels of LLC tumor; assay: Tumor vessel normalization (CD31, PDGFRβ immunofluorescence) in LLC tumors; format: in vivo, C57BL/6 mice; details: compared with Fc or Fc+Cpt
Description: In order to investigate the changes in tumor vessels by 2C811 antibody, we obtained frozen sections of tumor samples and performed immunofluorescence analyses by staining with a blood vessel-specific marker, CD31, and pericyte-specific marker, PDGFRβ. In detail, the tumor samples were harvested from the mice from the experiment described in Example 8, which were fixed in 4% paraformaldehyde (PFA, Merck), dehydrated in 30% sucrose (Junsei), embedded in OCT compound (Leica), and sectioned using a cryostat (Leica). The resulting frozen sections were blocked for 1 hr using a Protein Blocking Buffer (DAKO). Then the sections were stained with hamster anti-CD31 antibody (1:200, Millipore®) and rat anti-PDGFRB antibody (1:200, eBioscience™) in PBS at 4° C. for 8 hrs. After washing 3 times with PBS, the sections were stained with ALEXA FLUOR® 488-conjugated anti-hamster IgG antibody and Alexa ALEXA FLUOR® 594-conjugated anti-rat IgG antibody (1:1000, Jackson Immunoresearch) in PBS for 1 hr at room temperature. After another 3 washes with PBS, the sections were mounted in fluorescence mounting medium (DAKO) using a coverslip (Marienfeld). The stained sections were imaged using LSM880 confocal microscope (Zeiss). […]

B1: 2C8H11: humanized anti-Ang2 human IgG1 antibody from mouse 2C8; VH SEQ ID NO: 55, VL SEQ ID NO: 56 (antibody, V domains shown)
VH: QVQLVQSGAEVKKPGASVKVSCKASGYTFTSYWMHWVRQAPGQGLEWMGMIDPSDSETRLNQKFKDRVTMTRDTSTSTVYMELSSLRSEDTAVYYCARRFYYGSDWYFDVWGQGTLVTVSS
VL: DIQLTQSPSFLSASVGDRVTITCKASQDVGTAVAWYQQKPGKAPKLLIYWASTRHTGVPSRFSGSGSGTEFTLTISSLQPEDFATYYCQQYSSYPLTFGQGTKVEIK
modifications: human IgG1 constant regions; VH; VL
co-localization of antibody with Tie2 receptor ([1]; HUVECs, 30 min, anti-human Fc staining): co-localized with clustered Tie2 receptor at cell-cell contact and endocytosed Tie2 receptor in cytosol | Tie2 translocation/clustering to cell-cell contact ([1]; HUVECs, 30 min, antibodies 1 μg/ml with hAng2 1 μg/ml): induced Tie2 translocation/clustering to cell-cell contact | FOXO1 translocation from nucleus to cytosol ([1]; HUVECs, 30 min, compared to serum-starved control): markedly disappeared in nucleus | Tie2 receptor / Tie2 clustering at cell-cell contact at late time points ([1]; time-course, with hAng2, 120 min and 240 min): sustained even after 240 min treatment | co-localized antibody with Tie2 at cell-cell contact ([1]; time-course, with hAng2, up to 240 min): maintained until 240 min | vascular leakage induced by TNF-α (passage of FITC-dextran) [2]: significantly inhibited | PDGFRβ+ pericyte coverage increase [3]: 2.4 fold | tumor blood vessel (BV) density reduction [3]: 56%
